This is an account of results in patent US7423125.

Positions count from the first letter of the chain named. In names and notes the source's numbering stands.

The target in data set [1] is T1, Flt4 extracellular domain with C-terminal 6×His tag (Flt4EC), baculovirus-produced (human, UniProt P35916 25-775).
T1 construct: extracellular domain; also called Flt4EC-Sepharose
T1 sequence: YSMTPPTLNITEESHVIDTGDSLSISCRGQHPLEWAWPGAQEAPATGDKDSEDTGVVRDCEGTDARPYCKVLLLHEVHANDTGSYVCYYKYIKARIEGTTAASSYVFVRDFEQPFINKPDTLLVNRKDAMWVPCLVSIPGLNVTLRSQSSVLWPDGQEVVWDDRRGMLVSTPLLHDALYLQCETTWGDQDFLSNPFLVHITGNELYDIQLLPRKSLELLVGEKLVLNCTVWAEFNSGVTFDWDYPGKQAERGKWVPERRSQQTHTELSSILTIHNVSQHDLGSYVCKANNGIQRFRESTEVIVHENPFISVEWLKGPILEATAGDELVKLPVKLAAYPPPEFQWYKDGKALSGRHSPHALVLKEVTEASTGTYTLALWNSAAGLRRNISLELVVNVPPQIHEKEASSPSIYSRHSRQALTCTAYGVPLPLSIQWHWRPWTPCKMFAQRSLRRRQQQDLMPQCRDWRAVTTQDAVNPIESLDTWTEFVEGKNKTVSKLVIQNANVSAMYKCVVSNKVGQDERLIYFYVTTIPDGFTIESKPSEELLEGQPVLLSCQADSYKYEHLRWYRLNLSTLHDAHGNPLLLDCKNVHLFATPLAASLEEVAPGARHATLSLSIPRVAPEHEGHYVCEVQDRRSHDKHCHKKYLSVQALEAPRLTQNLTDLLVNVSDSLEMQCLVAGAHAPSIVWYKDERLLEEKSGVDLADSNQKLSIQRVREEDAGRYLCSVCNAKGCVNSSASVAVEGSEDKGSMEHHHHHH
The experiment in a line: depletion of conditioned medium on Flt4EC-Sepharose.

The target in data set [2] is T2, KDR (VEGFR-2) expressed on porcine aortic endothelial cells (UniProt P35968 20-1356, limits assumed).
T2 construct: whole, on cells; also called KDR/Flk-1; PAE-KDR cells
The experiment in a line: competition with 125I-VEGF-CΔNΔCHis on PAE/VEGFR-2 cells. How it is done: (§1) To study receptor binding, PAE/VEGFR-2 and PAE/VEGFR-3 cells were seeded into 24-well tissue culture plates (Nunclon), which had been coated with 2% gelatin in PBS. […] The binding was allowed to proceed at room temperature for 90 minutes. The plates were then transferred onto ice and washed three times with ice-cold PBS containing 0.1% BSA. The cells were then lysed in 1 M NaOH, the lysates were collected, and the radioactivity was measured using a γ-counter.

Data set [3] concerns the molecule itself. Briefly: homodimer formation, chemical crosslinking.
Data set [4] deals with T3, Flt4 receptor tyrosine kinase (VEGFR-3) expressed on cells (human, UniProt P35916 25-1363).
T3 construct: whole, on cells; also called LTRFlt4l; NIH 3T3-Flt4 cells
The experiment in a line: Scatchard analysis with 125I-labelled ligand. How it is done:
as §1

Data set [5] has as its target T2, KDR (VEGFR-2) expressed on porcine …. Briefly: Scatchard analysis with 125I-labelled ligand. The procedure: as §1
Data set [6] concerns the target T4, VEGFR-3EC-Ig (seven Ig loops of the VEGFR-3 extracellular domain fused to an immunoglobulin heavy chain … (UniProt P35916 25-775, limits assumed)).
T4 construct: domain: seven Ig loops of the extracellular domain; also called VEGFR-3EC domain; not shown: immunoglobulin heavy chain constant region, not specified
T4 sequence (looked up): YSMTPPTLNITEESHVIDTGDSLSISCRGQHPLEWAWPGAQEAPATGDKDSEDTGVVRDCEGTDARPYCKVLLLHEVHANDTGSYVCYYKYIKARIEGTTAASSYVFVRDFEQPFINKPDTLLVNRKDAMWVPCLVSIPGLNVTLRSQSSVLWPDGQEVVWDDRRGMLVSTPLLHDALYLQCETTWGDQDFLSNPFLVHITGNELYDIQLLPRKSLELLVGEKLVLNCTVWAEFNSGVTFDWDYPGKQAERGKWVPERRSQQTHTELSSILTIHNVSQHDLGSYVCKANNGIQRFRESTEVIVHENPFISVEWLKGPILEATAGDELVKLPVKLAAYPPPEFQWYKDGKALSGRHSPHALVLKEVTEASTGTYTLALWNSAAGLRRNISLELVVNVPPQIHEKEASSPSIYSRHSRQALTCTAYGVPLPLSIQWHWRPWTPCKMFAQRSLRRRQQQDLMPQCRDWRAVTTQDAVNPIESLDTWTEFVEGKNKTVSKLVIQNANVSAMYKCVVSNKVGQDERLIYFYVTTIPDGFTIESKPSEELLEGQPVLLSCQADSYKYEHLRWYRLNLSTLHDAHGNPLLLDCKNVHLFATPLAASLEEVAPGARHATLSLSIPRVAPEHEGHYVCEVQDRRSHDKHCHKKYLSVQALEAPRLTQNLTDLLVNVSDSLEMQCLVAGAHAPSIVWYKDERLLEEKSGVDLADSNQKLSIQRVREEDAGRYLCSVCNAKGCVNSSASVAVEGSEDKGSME
Briefly: receptor binding studies.

Data set [7] concerns the target T5, VEGFR-2EC-Ig (three Ig loops of the VEGFR-2 extracellular domain fused to an immunoglobulin heavy chain … (UniProt P35968 20-327, limits assumed)).
T5 construct: domain: three Ig loops of the extracellular domain; also called VEGFR-2EC domain; not shown: immunoglobulin heavy chain constant region, not specified
Briefly: receptor binding studies.

Data set [8] deals with the molecule itself. The experiment in a line: chemical crosslinking.
For data set [9], the target named is T5, VEGFR-2EC-Ig (three Ig loops of the …). Briefly: pull-down of 35S-labelled protein with VEGFR-2EC-Ig. The procedure: An aliquot of the transfected cells were metabolically labelled for 6 hours with 100 microcuries/ml of the PRO-MIX™ L-[^35S] in vitro cell labelling mix (Amersham).

T5 sequence (P35968 20-327 limits assumed): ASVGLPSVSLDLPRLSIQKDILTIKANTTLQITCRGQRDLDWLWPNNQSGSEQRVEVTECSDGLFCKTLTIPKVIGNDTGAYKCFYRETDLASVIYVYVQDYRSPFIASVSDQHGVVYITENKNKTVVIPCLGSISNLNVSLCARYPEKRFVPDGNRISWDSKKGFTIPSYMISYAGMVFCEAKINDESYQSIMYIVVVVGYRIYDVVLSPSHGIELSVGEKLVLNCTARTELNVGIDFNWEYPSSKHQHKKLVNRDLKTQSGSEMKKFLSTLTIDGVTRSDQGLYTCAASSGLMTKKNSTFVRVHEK
T2 sequence (P35968 20-1356 limits assumed): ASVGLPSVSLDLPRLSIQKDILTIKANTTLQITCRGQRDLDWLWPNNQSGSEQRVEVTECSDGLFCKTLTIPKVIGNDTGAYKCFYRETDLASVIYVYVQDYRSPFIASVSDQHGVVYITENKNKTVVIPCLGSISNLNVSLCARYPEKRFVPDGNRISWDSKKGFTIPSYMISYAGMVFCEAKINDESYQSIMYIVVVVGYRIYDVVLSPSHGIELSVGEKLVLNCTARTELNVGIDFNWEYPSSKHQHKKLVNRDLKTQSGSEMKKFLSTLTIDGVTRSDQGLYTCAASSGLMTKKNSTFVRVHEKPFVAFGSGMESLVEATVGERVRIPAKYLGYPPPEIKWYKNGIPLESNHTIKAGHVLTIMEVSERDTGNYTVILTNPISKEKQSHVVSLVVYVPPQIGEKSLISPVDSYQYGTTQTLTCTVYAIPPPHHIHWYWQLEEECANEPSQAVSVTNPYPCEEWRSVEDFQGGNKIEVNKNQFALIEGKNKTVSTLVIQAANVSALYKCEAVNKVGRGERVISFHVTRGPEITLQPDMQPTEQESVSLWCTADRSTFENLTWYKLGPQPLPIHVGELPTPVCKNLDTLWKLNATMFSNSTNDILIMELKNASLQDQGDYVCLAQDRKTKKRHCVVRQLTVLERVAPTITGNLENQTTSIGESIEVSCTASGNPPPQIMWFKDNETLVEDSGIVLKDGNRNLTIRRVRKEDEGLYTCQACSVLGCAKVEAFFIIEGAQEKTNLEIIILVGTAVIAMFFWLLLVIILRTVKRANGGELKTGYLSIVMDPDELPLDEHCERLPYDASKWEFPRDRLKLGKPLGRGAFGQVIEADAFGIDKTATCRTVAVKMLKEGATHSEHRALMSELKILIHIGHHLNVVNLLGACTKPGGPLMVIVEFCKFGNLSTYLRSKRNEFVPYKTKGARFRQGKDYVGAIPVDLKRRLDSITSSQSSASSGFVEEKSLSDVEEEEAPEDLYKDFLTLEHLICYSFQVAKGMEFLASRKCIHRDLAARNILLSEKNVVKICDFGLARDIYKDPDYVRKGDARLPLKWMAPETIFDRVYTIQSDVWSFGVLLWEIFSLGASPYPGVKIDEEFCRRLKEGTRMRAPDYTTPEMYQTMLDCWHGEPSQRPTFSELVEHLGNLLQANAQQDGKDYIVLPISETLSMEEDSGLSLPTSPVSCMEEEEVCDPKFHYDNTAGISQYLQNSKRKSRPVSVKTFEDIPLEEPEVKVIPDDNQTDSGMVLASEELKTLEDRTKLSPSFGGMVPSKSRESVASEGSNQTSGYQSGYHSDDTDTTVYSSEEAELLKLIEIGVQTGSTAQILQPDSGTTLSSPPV

B1: Flt4 ligand of about 23 kD from PC-3 cell conditioned medium (naturally processed VEGF-C) (ligand)
chain: TEETIKFAAAHYNTEILKSIDNEWRKTQCMPREVCIDVGKEFGVATNTFFKPPCVSVYRCGGCCNSEGLQCMNTSTSYLSKTLFEITVPLSQGPKPVTISFANHTSCRCMSKLDVYRQVHSIIRR
notes: also called 23 kD polypeptide; 21-23 kD form (PC-3)
With B1, the binding result in data set [1] was “binds”.

B2: VEGF-C R226,227S (ligand)
chain: FESGLDLSDAEPDAGEATAYASKDLEEQLRSVSSVDELMTVLYPEYWKMYKCQLRKGGWQHNREQANLNSRTEETIKFAAAHYNTEILKSIDNEWRKTQCMPREVCIDVGKEFGVATNTFFKPPCVSVYRCGGCCNSEGLQCMNTSTSYLSKTLFEITVPLSQGPKPVTISFANHTSCRCMSKLDVYRQVHSIISSSLPATLPQCQAANKTCPTNYMWNNHICRCLAQEDFMFSSDAGDDSTDGFHDICGPNKELDEETCQCVCRAGLRPASCGPHKELDRNSCQCVCKNKLFPSQCGANREFDENTCQCVCKRTCPRNQPLNPGKCACECTESPQKCLLKGKKFHHQTCSCYRRPCTNRQKACEPGFSYSEEVCRCVPSYWKRPQMS
notes: The C-terminal cleavage site is destroyed; N-terminal processing may still occur; also called non-processed VEGF-C R226,227S
In the case of B2, the binding result in data set [2] was “binds”.

B3: VEGF-C ΔNΔCHis (ligand)
chain: TEETIKFAAAHYNTEILKSIDNEWRKTQCMPREVCIDVGKEFGVATNTFFKPPCVSVYRCGGCCNSEGLQCMNTSTSYLSKTLFEITVPLSQGPKPVTISFANHTSCRCMSKLDVYRQVHSIIHHHHHH
notes: the yeast protein was iodinated as tracer; also called VEGF-C ΔCΔNHis; recombinantly-matured VEGF-C
Turning to B3, in data set [3], the binding result was “binds”. Moreover, the Kd (commonly the constant that tells how readily two partners part at equilibrium) in data set [4] was 0.135 nM; in data set [5], 0.41 nM.

B4: VEGF-CΔNΔCHis C165S (ligand)
chain: B3 chain with C63S
notes: also called C165S form
Take B4: the binding result in data set [6], in data set [7] and in data set [8] was “no binding” each time.

B5: VEGF-CΔNΔCHis C156S (ligand)
chain: B3 chain with C54S
notes: also called VEGF-CΔNΔCH is R156S (as printed once); VEGF-C ΔNΔC156S
For B5, the binding result in data set [3] is recorded as “binds”; in data set [9], “no binding”; in data set [2], “no binding”.

B6: VEGF-CΔNΔCHis C156,165S (ligand)
chain: B3 chain with C54S, C63S
notes: also called C156,165S form
On to B6, for which the binding result in data set [6], in [7] and in data set [8] was “no binding” each time.
